# Where a chain is given by its changes, count along the chain named.
# T1: HuCXCL1 (Homo sapiens, UniProt P09341)
# T1 construct: made in house; host or cells: Expi293 expression system (transient), protein from the culture supernatant
# T1 sequence (P09341 35-107): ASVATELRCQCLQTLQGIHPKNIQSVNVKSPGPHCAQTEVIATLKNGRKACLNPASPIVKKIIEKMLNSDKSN
# T2: HuCXCL3 (Homo sapiens, UniProt P19876)
# T2 construct: purchased PROTEINTECH
# T2 sequence (P19876 35-107): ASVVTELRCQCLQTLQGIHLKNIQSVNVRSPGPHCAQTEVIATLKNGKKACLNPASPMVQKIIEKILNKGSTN
# T3: HuCXCL2 (Homo sapiens, UniProt P19875)
# T3 construct: purchased PROTEINTECH
# T3 sequence (P19875 35-107): T1 sequence (P09341 35-107) with S2P, V3L, P20L, N27K, R48Q, I58M, N68K, S69N, D70G
# T4: MsCXCL1 (Mus musculus, UniProt P12850)
# T4 sequence (P12850 25-96): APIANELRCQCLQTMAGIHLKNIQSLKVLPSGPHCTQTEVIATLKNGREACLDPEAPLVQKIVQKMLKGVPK
# B1: Hu5A-5E11: humanized antibody VH1/VL1; VH SEQ ID NO: 76, VL SEQ ID NO: 78 (antibody, V domains shown)
# VH: QVQLVQSGAEVKKPGSSVKVSCKASGYAFSDYWMNWVRQAPGQGLEWIGQIYPGSGDTNYNAKFKGKGTITADKSTSTAYMELSSLRSEDTAVYYCARERDYDVAMDYWGQGTTVTVSS
# VL: DIQMTQSPSSLSASVGDRVTITCKASQDINKYIAWFQQKPGKAPKLVIHYTSILQPGVPSRFSGSGSGTDYTFTISSLQPEDIATYYCLQYDNLPWTFGGGTKVEIK
# Experiments:
# [1] = tested on: OCUM-12 gastric cancer cell line; assay: Antitumor activity, treatment model with OCUM-12 orthotopic transplantation; type: in vivo, mouse; conditions: compared to PBS
# Procedure: OCUM-12 cells were cultured in D-MED medium (FUJIFILM Wako Pure Chemical Corporation, Japan) supplemented with 10% fetal bovine serum (hereinafter abbreviated as FBS; Sigma-Aldrich Corporation) and 1/100 volumes of a penicillin-streptomycin mixture (Nacalai Tesque, Inc., Japan). The cells to be transplanted were detached with 0.25% trypsin/0.02% EDTA (Thermo Fisher Scientific) and washed with PBS, and 4×10^5 cells per mouse were transplanted into the gastric wall of each mouse. On the day following the transplantation, the mice were randomized into groups (8 mice per group) and intraperitoneally administered with test antibodies at a dose of 400 μg/head. […] After 3 weeks had passed from the transplantation, the mice were sacrificed, and the short- and long-axis diameters of tumors formed in their gastric walls were each measured with a caliper. The tumor size was calculated according to the following: 1/2 short-axis diameter (mm)×1/2 long-axis diameter (mm)×3.14. […]
# The dose-response relationship between antibody dose and in vivo antitumor activity or CXCR2 migration inhibitory activity was evaluated in a xenograft treatment model with OCUM-12 orthotopic transplantation. […] After 4 weeks had passed from the transplantation, the mice were sacrificed and evaluated.
# [2] = target: T1, HuCXCL1; assay: ELISA, inhibition of binding of HuCXCL1 to GAG (heparin, heparan sulfate); type: biochemical; conditions: antibody 0 to 10 μg/mL; biotin-labeled heparin or heparan sulfate 10 μg/mL
# Procedure: (§1) Thus, the effect of Hu5A-5E11 on the binding of CXCLs to GAG was evaluated by ELISA assay using plates on which the antigen (HuCXCL1 protein) used for immunization or HuCXCL2, 3 and 5 and MsCXCL1 and 2 proteins had been directly immobilized. CXCLs other than HuCXCL1 were purchased from PROTEINTECH and used. Biotin-labeled heparan sulfate and heparin were purchased from PG Research and used.
# (§2) To 96-well plates, phosphate-buffered saline (PBS) containing 3 μg/mL of HuCXCL1, 2, 3 or 5 or MsCXCL1 or 10 μg/mL of MsCXCL2 was added in a volume of 50 μL per well, and the plates were allowed to stand overnight at 4° C. After removal of the antigen solutions, PBS containing 0.05% Tween-20 (hereinafter referred to as the blocking solution) was added to each well for blocking reaction, and the plates were allowed to stand at room temperature for 30 minutes. […] TMB (Dako) was added as a chromogenic substrate solution to cause color development, and 1 N sulfuric acid was added to stop the reaction, followed by measurement of absorbance at 450 nm. The binding rate of CXCLs to GAG was calculated as a ratio relative to the absorbance measured in the absence of the antibody, which was set to 100%.
# [3] = target: T2, HuCXCL3; assay: ELISA, inhibition of binding of HuCXCL3 to GAG (heparin, heparan sulfate); type: biochemical; conditions: antibody 0 to 10 μg/mL; biotin-labeled heparin or heparan sulfate 10 μg/mL
# Procedure: as §1, §2
# [4] = target: T1, HuCXCL1; assay: FACS, inhibition of binding of APC-labeled HuCXCL1 to HEK293 cells forced to express HuCXCR2; type: cell-based; conditions: APC-labeled ligand 10 μg/mL; HEK293 cells expressing HuCXCR2
# Procedure: (§3) Chemokines are stabilized by directly binding to GAG on the cell surface and thereby allow efficient signal transduction to their receptors. […] Then, to evaluate whether Hu5A-5E11 inhibits the binding of CXCLs to cells, the binding of fluorescently labeled CXCLs to cells was measured as fluorescence intensity by flow cytometry in FACS. For this purpose, HEK293 cells forced to express HuCXCR2 were used. For use as HuCXCL1, 2, 3 and 5 and MsCXCL1, the proteins in above were labeled with APC.
# (§4) The cultured cells were detached and washed with PBS, and then suspended at 5.0× 10^5 cells/mL in PBS containing 1% BSA (hereinafter referred to as the FACS buffer). Each of the APC-labeled ligands and Hu5A-5E11 were mixed at final concentrations of 10 μg/mL and 16.7 μg/mL, respectively, and reacted at room temperature for 30 minutes, and then added to the cell suspension and reacted on ice for 30 minutes. After washing with the FACS buffer, the cells were suspended again in PBS containing 1% 7-AAD, 0.5% BSA and 2 mM EDTA, followed by the above flow cytometry to measure fluorescence intensity.
# [5] = target: T3, HuCXCL2; assay: FACS, inhibition of binding of APC-labeled HuCXCL2 to HEK293 cells forced to express HuCXCR2; type: cell-based; conditions: APC-labeled ligand 10 μg/mL; HEK293 cells expressing HuCXCR2
# Procedure: as §3, §4
# [6] = target: T4, MsCXCL1; assay: FACS, inhibition of binding of APC-labeled MsCXCL1 to HEK293 cells forced to express HuCXCR2; type: cell-based; set-up: purchased PROTEINTECH; host or cells: CXCR2: transfected HEK293 cells; conditions: APC-labeled ligand 10 μg/mL; HEK293 cells expressing HuCXCR2
# Procedure: as §3, §4
molecule,measurement,setting,value
B1,Dose significantly suppressing the tumor area,[1],≥ 60 μg/head
same,Inhibitory activity against the binding of HuCXCL1 to GAG,[2],"inhibit the binding of HuCXCL1, 2, 3 and 5 and MsCXCL1 to GAG in an antibody concentration-dependent manner"
same,Inhibitory activity against the binding of HuCXCL3 to GAG,[3],"inhibit the binding of HuCXCL1, 2, 3 and 5 and MsCXCL1 to GAG in an antibody concentration-dependent manner"
same,Inhibitory activity against the binding of HuCXCL1 to cells (fluorescence intensity),[4],reduce the fluorescence intensity of the cells in an antibody concentration-dependent manner
same,Inhibitory activity against the binding of HuCXCL2 to cells (fluorescence intensity),[5],reduce the fluorescence intensity of the cells in an antibody concentration-dependent manner
same,Inhibitory activity against the binding of MsCXCL1 to cells (fluorescence intensity),[6],reduce the fluorescence intensity of the cells in an antibody concentration-dependent manner

# From patent publication US20250154240A1, “ANTI-HUMAN CXCL1 ANTIBODY” (CHIOME BIOSCIENCE INC., priority 2022, published 2025)
